In experiment [1] the target is T1, CXCR2 (Homo sapiens, UniProt P25025).
T1 construct: expressed in transfected cells; host or cells: CHO cells, pcDNA3 vector, crude membranes of stably transfected cells
T1 sequence (P25025 1-360): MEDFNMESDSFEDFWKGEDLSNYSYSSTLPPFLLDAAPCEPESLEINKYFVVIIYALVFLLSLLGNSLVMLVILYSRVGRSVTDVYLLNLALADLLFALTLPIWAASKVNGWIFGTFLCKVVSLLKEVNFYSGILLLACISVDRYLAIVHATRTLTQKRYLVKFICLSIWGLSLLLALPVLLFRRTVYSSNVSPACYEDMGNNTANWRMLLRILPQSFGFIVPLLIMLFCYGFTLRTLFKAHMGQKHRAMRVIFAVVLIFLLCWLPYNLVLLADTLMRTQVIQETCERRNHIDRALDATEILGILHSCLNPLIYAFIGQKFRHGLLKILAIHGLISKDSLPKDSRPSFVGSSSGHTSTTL
Briefly: CXCR2 membrane radioligand (125I-Groα) competition binding. To be noted: two site binding curve, FIG. 8A (pcDNA3/CHO membranes); 0.5 nM 125I-Groα; matches high affinity sites of FIG. 8B.
Procedure: After 2 hours of incubation at room temperature, membranes were harvested to a 96-well GF/C filter plate, dried and counted using a Microbeta counter.
1-5 μg/well of crude membrane protein was thawed and combined with 50,000 to 100,000 cpm of radioligand (2200 Ci/mmol) and cold competitors in assay buffer (50 mM Hepes, 5 mM MgCl2, 1 mM CaCl2, 0.2% BSA) for 2 hours at 25° C. Reactions were performed in 96-well GF/C glass fiber filter plates (PerkinElmer, Cat. No. 6005174, Wellesley, Mass.). Binding was terminated by adding 100 μl/well of wash buffer (50 mM Hepes, pH 7.4, 500 mM NaCl, 0.1% BSA) and aspiration through the plate on a cell harvester, followed by three 0.2 ml washes with wash buffer. The filter plate was then dried and counted on a Microbeta liquid scintillation counter (PerkinElmer, Wellesley, Mass.).

Experiment [2] has as its target T1, CXCR2. The experiment in a line: CXCR2 membrane radioligand (125I-Groα) saturation binding. To be noted: membranes of CHO cells transfected with CXCR2, pcDNA3 vector; 125I-Groα 0-2 nM (FIG. 7A). The protocol: FIG. 7A is a graph depicting CXCR2 membrane radioligand saturation binding for membranes of CHO cells transfected with CXCR2 encoded by the mammalian expression vector pcDNA3. Specifically, 5 μg of GPCR membrane preps were incubated with increasing concentrations (0-2 nM) of ^125I-labeled ligand Groα (PerkinElmer, Wellesley, Mass.) in the absence or presence of an excess amount of cold ligand Groα.
FIG. 7B is a graph depicting CXCR2 membrane radioligand saturation binding for membranes of CHEM-1 cells transfected with CXCR2 encoded by the expression vector pHS. Specifically, 5 μg of GPCR membrane preparation was incubated with increasing concentrations (0-2 nM) of ^125I-labeled ligand Groα (PerkinElmer, Wellesley, Mass.) in the absence or presence of an excess amount of cold ligand Groα.
1-5 μg/well of crude membrane protein was thawed and combined with 50,000 to 100,000 cpm of radioligand (2200 Ci/mmol) and cold competitors in assay buffer (50 mM Hepes, 5 mM MgCl2, 1 mM CaCl2, 0.2% BSA) for 2 hours at 25° C. Reactions were performed in 96-well GF/C glass fiber filter plates (PerkinElmer, Cat. No. 6005174, Wellesley, Mass.). […] The filter plate was then dried and counted on a Microbeta liquid scintillation counter (PerkinElmer, Wellesley, Mass.). […]

Another experiment deals with T2, CB1 receptor (Homo sapiens, UniProt P21554).
T2 construct: ER export signal […]; expressed in transfected cells; host or cells: CHEM-1 (RBL-2H3) cells, pHS vector
Briefly: CB1 receptor FLIPR dose response in CB1-transfected CHEM-1 cells. The format is cell-based. To be noted: pHS vector (FIG. 10D).

By Ki is commonly meant the dissociation constant of the complex between target and ligand, obtained from inhibition or displacement. Low readings indicate higher affinity, high ones lower affinity. As a reminder, the Kd is a measure of binding affinity in units of concentration. A low value points to higher affinity.

T2 sequence (P21554 whole entry): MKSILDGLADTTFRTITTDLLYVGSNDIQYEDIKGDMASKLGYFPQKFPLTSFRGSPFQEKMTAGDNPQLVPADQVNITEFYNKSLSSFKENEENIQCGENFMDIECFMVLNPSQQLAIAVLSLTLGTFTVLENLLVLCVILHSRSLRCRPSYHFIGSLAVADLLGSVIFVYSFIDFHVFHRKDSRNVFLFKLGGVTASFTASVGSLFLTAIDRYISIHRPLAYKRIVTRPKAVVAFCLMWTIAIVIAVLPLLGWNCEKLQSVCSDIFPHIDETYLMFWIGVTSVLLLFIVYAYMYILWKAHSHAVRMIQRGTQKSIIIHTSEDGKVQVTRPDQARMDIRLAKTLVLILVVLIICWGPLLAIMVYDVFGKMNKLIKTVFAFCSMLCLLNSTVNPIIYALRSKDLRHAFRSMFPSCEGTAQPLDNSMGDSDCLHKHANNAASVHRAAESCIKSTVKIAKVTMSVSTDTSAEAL
Procedure for CB1 receptor: FIG. 10D is a graph depicting the agonist-induced CB1 receptor FLIPR® dose response for CB1-transfected CHEM-1 cells using the pHS vector.
Cells (50,000/well) were seeded in a 96 well FLIPR® plate (clear bottom, black wall TC plate) the day before the experiment, and then loaded with fluorescent calcium dye Fluo-4 or Indo-1 (Molecular Probes) and incubated for 30 minutes at 37° C. in the dark with Pluronic F-127 and Probenecid in HBSS buffer (with Ca^2+ and Mg^2+). The cells were then washed twice with HBSS and read for calcium mobilization after the ligand addition on FLEX Station or FLIPR®. The loading efficiency and integrity of the Ca^2+ flux assay were assessed by comparing the signaling response to ionomycin treatment before and after each run.

With Groα, the Ki with CXCR2 [1] is 0.22 nM. This molecule also registered a Kd with CXCR2 [2] of 0.148 nM.

In the case of `CCCCCCC(C)(C)c1ccc([C@@H]2C[C@H](O)CC[C@H]2CCCO)c(O)c1` [CP55940], at CB1 receptor, the “agonist type (efficacy) in FLIPR dose response” value is on record as “partial agonists”.

For the origin of these results see US20060141569A1, “Compositions and methods for the assay of G-protein coupled receptors and their ligands” (priority 2004, published 2006).
